Assay results: publication PMC11481384 (2024)

Target: Keap1 Kelch domain (amino acid residues 309 to 624) (human, UniProt Q14145 309-624)
Test: ITC

Sequence of Keap1 Kelch domain (amino acid residues 309 to 624) (Q14145 309-624): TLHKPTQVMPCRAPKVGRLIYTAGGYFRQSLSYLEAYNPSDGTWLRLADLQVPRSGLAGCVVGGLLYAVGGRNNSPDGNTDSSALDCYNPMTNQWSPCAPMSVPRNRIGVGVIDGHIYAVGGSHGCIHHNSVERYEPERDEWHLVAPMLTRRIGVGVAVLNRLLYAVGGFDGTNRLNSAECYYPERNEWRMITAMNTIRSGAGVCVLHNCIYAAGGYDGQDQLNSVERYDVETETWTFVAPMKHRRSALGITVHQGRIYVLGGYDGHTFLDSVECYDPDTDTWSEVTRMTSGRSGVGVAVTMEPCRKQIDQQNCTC

Kd [µM]	Binder
133	NVESGE (Sequence shown only in Fig. 4B; limits taken as the NxESGE motif (UniProt Keap1-interaction region 77-82). Synthetic peptide, termini not stated) [6-mer peptide]
63.6	INVRKRNVESGE [PGAM5 IE 12‐mer peptide]
14	ESGEEELASKLD (Limits inferred from the name: first residue E, last residue D, 12 residues, containing ESGE; by analogy IE 12-mer = 71-82 (PDB 8IN0) and the 20-mer is probably 71-90. Synthetic peptide, termini not stated) [ED 12-mer peptide]
